Data published in paper PMC11602130 (Nucleic Acids Research, 2024).

Target: CSA (human, untagged after removal of GST) (human, UniProt Q13216 1-396)
Assay: pull-down

Chain of CSA (human, untagged after removal of GST) (Q13216 whole entry): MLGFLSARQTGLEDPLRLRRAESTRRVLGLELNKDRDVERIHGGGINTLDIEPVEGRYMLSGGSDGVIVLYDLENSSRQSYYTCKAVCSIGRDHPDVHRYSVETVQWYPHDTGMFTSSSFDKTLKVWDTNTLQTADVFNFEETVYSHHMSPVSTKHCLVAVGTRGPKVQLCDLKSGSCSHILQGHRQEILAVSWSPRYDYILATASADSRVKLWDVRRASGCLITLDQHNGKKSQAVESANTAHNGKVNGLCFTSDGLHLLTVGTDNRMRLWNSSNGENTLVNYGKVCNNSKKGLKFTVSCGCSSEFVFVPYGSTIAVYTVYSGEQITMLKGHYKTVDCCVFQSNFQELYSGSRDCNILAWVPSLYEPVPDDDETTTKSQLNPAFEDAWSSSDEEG

- binding result: binds
B1: His-STK19 (human STK19S, 254aa isoform) (natural protein, UniProt P49842 1-254, looked up)
chain: MSWKRHHLIPETFGVKRRRKRGPVESDPLRGEPGSARAAVSELMQLFPRGLFEDALPPIVLRSQVYSLVPDRTVADRQLKELQEQGEIRIVQLGFDLDAHGIIFTEDYRTRVLKACDGRPYAGAVQKFLASVLPACGDLSFQQDQMTQTFGFRDSEITHLVNAGVLTVRDAGSWWLAVPGAGRFIKYFVKGRQAVLSMVRKAKYRELLLSELLGRRAPVVVRLGLTYHVHDLIGAQLVDCISTTSGTLLRLPET
